Biological target: T1, Recombinant human E-selectin/Fc chimera (human, UniProt P16581 22-556)
T1 sequence (looked up): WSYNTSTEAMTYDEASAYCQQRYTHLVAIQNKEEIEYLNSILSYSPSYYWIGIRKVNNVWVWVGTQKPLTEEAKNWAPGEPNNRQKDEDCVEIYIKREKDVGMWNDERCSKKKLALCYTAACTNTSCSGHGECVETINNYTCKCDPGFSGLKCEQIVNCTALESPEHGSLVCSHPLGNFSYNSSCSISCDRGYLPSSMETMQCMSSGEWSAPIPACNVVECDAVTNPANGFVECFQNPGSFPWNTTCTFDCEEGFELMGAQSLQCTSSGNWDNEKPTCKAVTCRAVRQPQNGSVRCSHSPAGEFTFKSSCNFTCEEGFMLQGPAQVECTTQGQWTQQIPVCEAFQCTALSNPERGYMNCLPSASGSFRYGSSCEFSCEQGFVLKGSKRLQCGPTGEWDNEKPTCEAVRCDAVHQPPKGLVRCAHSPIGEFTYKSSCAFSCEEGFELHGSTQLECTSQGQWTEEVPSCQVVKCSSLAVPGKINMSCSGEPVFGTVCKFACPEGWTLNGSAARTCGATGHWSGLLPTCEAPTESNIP
Experiment: SPR

Ka: 3.18e+08 M⁻¹ | Kd: 3.4 nM | koff: 0.0016 s⁻¹ | kon: 379000 M⁻¹ s⁻¹
Binder: SETTTGTSSNSSQSTSNSGLAPNPTNATTKAAG (natural protein, UniProt P25063 27-59, looked up) [Recombinant human CD24]

Reference: article PMC3059340 (Analytical chemistry, 2011)
